Test results taken from publication PMC6555819, “Comprehensive study of nuclear receptor DNA binding provides a revised framework for understanding receptor specificity”.
Residue numbers refer to the chain shown, from its start.

B1: NRC3_wobSeed77_DR3_T22C_o1 (dsDNA)
DNA 1: GCACTTACGGGTCAACGAGGTCATAGCACGCGTATAGCGATTGACAGCGTAGAATGAAGG
DNA 2: CCTTCATTCTACGCTGTCAATCGCTATACGCGTGCTATGACCTCGTTGACCCGTAAGTGC
B2: NRC3_wobSeed85_DR3_G15C_o1 (dsDNA)
DNA 1: GCCGTCCAAGGTCACAGAGGTCAGTGAATGCCGAGTGCGATTGACAGCGTAGAATGAAGG
DNA 2: CCTTCATTCTACGCTGTCAATCGCACTCGGCATTCACTGACCTCTGTGACCTTGGACGGC
B3: NRC3_wobSeed142_DR5_G13C_o1 (dsDNA)
DNA 1: GCATACCAAGGTCATCGTGAGGTCGTTGATACTAACGCGATTGACAGCGTAGAATGAAGG
DNA 2: CCTTCATTCTACGCTGTCAATCGCGTTAGTATCAACGACCTCACGATGACCTTGGTATGC
B4: NRC3_random_hg19_185_o1 (dsDNA)
DNA 1: GCTAGTGAGTGAGTTCTCACAAGAAATGGTTGTTTAGCGATTGACAGCGTAGAATGAAGG
DNA 2: CCTTCATTCTACGCTGTCAATCGCTAAACAACCATTTCTTGTGAGAACTCACTCACTAGC
B5: NRC3_wobSeed97_DR4_A18G_o1 (dsDNA)
DNA 1: GCCAAACTAGGTCACGAGAGGTCAAAGTCGAATGACGCGATTGACAGCGTAGAATGAAGG
DNA 2: CCTTCATTCTACGCTGTCAATCGCGTCATTCGACTTTGACCTCTCGTGACCTAGTTTGGC
B6: NRC3_random_hg19_419_o1 (dsDNA)
DNA 1: GCAGAGCAGACTTCCTGTGTATGTTAGGATGAAACCGCGATTGACAGCGTAGAATGAAGG
DNA 2: CCTTCATTCTACGCTGTCAATCGCGGTTTCATCCTAACATACACAGGAAGTCTGCTCTGC
B7: NRC3_wobSeed114_DR4_C22T_o1 (dsDNA)
DNA 1: GCAATACAGGGTCATCGTAGGTCAGAGTACGCACAGGCGATTGACAGCGTAGAATGAAGG
DNA 2: CCTTCATTCTACGCTGTCAATCGCCTGTGCGTACTCTGACCTACGATGACCCTGTATTGC
B8: NRC3_random_hg19_103_o1 (dsDNA)
DNA 1: GCTCAGGAGTTCGAGAACAGCCTGGCTAACATGGCGGCGATTGACAGCGTAGAATGAAGG
DNA 2: CCTTCATTCTACGCTGTCAATCGCCGCCATGTTAGCCAGGCTGTTCTCGAACTCCTGAGC
B9: NRC3_wobSeed119_DR4_G23C_o1 (dsDNA)
DNA 1: GCGGAACGAGGGCATTCGAGTTCATAGCATGGCGATGCGATTGACAGCGTAGAATGAAGG
DNA 2: CCTTCATTCTACGCTGTCAATCGCATCGCCATGCTATGAACTCGAATGCCCTCGTTCCGC
B10: NRC3_wobSeed98_DR4_T9A_o1 (dsDNA)
DNA 1: GCACTAGTAGGTCAGCTGAGGTCACACACAATTCGGGCGATTGACAGCGTAGAATGAAGG
DNA 2: CCTTCATTCTACGCTGTCAATCGCCCGAATTGTGTGTGACCTCAGCTGACCTACTAGTGC
B11: NRC3_wobSeed98_DR4_T9G_o1 (dsDNA)
DNA 1: B10 DNA 1 with A9G
DNA 2: B10 DNA 2 with T52C
B12: NRC3_wobSeed49_DR2_T8C_o1 (dsDNA)
DNA 1: GCCAAACCAGGTCAAGAGGTCAAAGTCCGCTTCCCGGCGATTGACAGCGTAGAATGAAGG
DNA 2: CCTTCATTCTACGCTGTCAATCGCCGGGAAGCGGACTTTGACCTCTTGACCTGGTTTGGC
B13: NRC3_random_hg19_322_o1 (dsDNA)
DNA 1: GCTGTAAAGTGGTCCACTGACAGCTTCCACTCTTCTGCGATTGACAGCGTAGAATGAAGG
DNA 2: CCTTCATTCTACGCTGTCAATCGCAGAAGAGTGGAAGCTGTCAGTGGACCACTTTACAGC
B14: NRC3_random_hg19_90_o1 (dsDNA)
DNA 1: GCTGAGTATTGTAGATTCATTGTTGAGATTCTAGATGCGATTGACAGCGTAGAATGAAGG
DNA 2: CCTTCATTCTACGCTGTCAATCGCATCTAGAATCTCAACAATGAATCTACAATACTCAGC
B15: NRC3_wobSeed117_DR4_A23T_o1 (dsDNA)
DNA 1: GCCGTCAAAGTTCAACTAAGGTTACGTAAAGCACGCGCGATTGACAGCGTAGAATGAAGG
DNA 2: CCTTCATTCTACGCTGTCAATCGCGCGTGCTTTACGTAACCTTAGTTGAACTTTGACGGC
B16: NRC3_wobSeed85_DR3_G24T_o1 (dsDNA)
DNA 1: B2 DNA 1 with C15G, G24T
DNA 2: B2 DNA 2 with C37A, G46C
B17: NRC3_wobSeed113_DR4_G15A_o1 (dsDNA)
DNA 1: GCATATGTAGGTTAACTGGGGTCATTCAGACTAGGCGCGATTGACAGCGTAGAATGAAGG
DNA 2: CCTTCATTCTACGCTGTCAATCGCGCCTAGTCTGAATGACCCCAGTTAACCTACATATGC
B18: NRC3_wobSeed118_DR4_G13C_o1 (dsDNA)
DNA 1: GCTTACCAAGGTCAGCTGAGGTCGTTGATCCAACTCGCGATTGACAGCGTAGAATGAAGG
DNA 2: CCTTCATTCTACGCTGTCAATCGCGAGTTGGATCAACGACCTCAGCTGACCTTGGTAAGC
B19: NRC3_wobSeed87_DR3_T8G_o1 (dsDNA)
DNA 1: GCCGAACGAGGTCATCCAGGACAGTGAATACATTGAGCGATTGACAGCGTAGAATGAAGG
DNA 2: CCTTCATTCTACGCTGTCAATCGCTCAATGTATTCACTGTCCTGGATGACCTCGTTCGGC
B20: NRC3_random_hg19_109_o1 (dsDNA)
DNA 1: GCTGGTGTTTCATCACTGTGGCAACTTCCCACCTGGGCGATTGACAGCGTAGAATGAAGG
DNA 2: CCTTCATTCTACGCTGTCAATCGCCCAGGTGGGAAGTTGCCACAGTGATGAAACACCAGC

Biological target: RXRa (Homo sapiens, UniProt P19793)
Test: no ligand; PBM; 180 nM; PBS pH 7.4, 2% milk, 0.02% Triton X-100, 1 mM DTT, BSA, 0.4 mg/ml salmon testes DNA
Conditions: tags: His cleaved; chain copies: 2; label: surface-attached array probe

| Binder | binding signal |
| --- | --- |
| B1 | 7.88 PBM z-score against 500 random probes |

Biological target: RARg:RXRa (Homo sapiens, UniProt P13631;P19793 full;full)
Test: no ligand; PBM; 270 nM : 90 nM RXRa; PBS pH 7.4, 2% milk, 0.02% Triton X-100, 1 mM DTT, BSA, 0.4 mg/ml salmon testes DNA
Conditions: tags: His kept;His cleaved; copies: 1;1; label: surface-attached array probe
In short: (§1)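 Binding buffer was PBS pH 7.4 with 2% milk, 0.02% Triton X-100, 1 mM DTT, 0.2 mg/mL BSA and 0.4 mg/ml salmon testes DNA. In it, ligand-free nuclear receptor dimers were incubated 1 h on custom Agilent 4×180K protein-binding microarrays carrying double-stranded probes. Antibodies against each partner (one per run) detected binding, and z-scores were calculated against random background probes after regression normalization of scanned fluorescence.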

| Binder | binding signal |
| --- | --- |
| B2 | 7.46 PBM z-score against 500 random probes |
| B3 | 7.52 PBM z-score against 500 random probes |

Biological target: PXR:RXRa (Homo sapiens, UniProt O75469;P19793 full;full)
Test: as above
Conditions: tags: His kept;His cleaved; copies: 1;1; label: surface-attached array probe
In short: as §1

Chain of PXR:RXRa (O75469 whole entry, chain 1 of 2): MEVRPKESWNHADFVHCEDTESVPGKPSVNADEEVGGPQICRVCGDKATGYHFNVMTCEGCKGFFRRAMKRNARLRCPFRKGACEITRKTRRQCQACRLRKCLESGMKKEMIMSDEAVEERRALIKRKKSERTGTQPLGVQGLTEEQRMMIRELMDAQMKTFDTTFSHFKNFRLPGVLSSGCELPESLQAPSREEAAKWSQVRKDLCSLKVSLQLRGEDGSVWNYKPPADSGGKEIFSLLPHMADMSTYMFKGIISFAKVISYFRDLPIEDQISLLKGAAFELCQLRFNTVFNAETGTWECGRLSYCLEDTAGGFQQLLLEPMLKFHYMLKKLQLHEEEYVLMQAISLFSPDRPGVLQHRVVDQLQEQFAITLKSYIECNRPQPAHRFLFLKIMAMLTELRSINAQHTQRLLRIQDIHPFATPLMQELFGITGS
Chain of PXR:RXRa (P19793 whole entry, chain 2 of 2): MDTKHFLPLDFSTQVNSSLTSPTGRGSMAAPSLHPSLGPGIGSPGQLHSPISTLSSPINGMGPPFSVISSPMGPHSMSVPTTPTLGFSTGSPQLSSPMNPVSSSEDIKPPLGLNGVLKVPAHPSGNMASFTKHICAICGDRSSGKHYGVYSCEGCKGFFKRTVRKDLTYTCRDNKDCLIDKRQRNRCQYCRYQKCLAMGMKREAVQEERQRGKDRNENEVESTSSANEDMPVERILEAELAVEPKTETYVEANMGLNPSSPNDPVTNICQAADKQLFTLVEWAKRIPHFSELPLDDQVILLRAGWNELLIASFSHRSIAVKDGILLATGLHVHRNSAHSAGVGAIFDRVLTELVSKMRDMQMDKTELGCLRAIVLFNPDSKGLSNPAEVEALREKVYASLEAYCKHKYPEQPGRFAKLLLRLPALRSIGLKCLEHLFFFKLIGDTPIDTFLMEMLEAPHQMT

| Binder | binding signal |
| --- | --- |
| B4 | -0.01 PBM z-score against 500 random probes |
| B5 | 7.59 PBM z-score against 500 random probes |
| B6 | -0.62 PBM z-score against 500 random probes |
| B7 | 6.36 PBM z-score against 500 random probes |
| B8 | 0.28 PBM z-score against 500 random probes |
| B9 | 7.11 PBM z-score against 500 random probes |
| B10 | 7.12 PBM z-score against 500 random probes |
| B11 | 6.95 PBM z-score against 500 random probes |
| B12 | 6.81 PBM z-score against 500 random probes |
| B13 | -0.56 PBM z-score against 500 random probes |
| B14 | -0.1 PBM z-score against 500 random probes |
| B15 | 6.82 PBM z-score against 500 random probes |
| B2 | 6.95 PBM z-score against 500 random probes |
| B16 | 7.16 PBM z-score against 500 random probes |
| B17 | 6.99 PBM z-score against 500 random probes |
| B3 | 6.51 PBM z-score against 500 random probes |
| B18 | 6.89 PBM z-score against 500 random probes |
| B1 | 6.59 PBM z-score against 500 random probes |
| B19 | 6.36 PBM z-score against 500 random probes |
| B20 | -0.28 PBM z-score against 500 random probes |

Biological target: RARb:RXRa (Homo sapiens, UniProt P10826;P19793 full;full)
Test: as above
Conditions: tags: His kept;His cleaved; copies: 1;1; label: surface-attached array probe
In short: as §1

| Binder | binding signal |
| --- | --- |
| B2 | 5.99 PBM z-score against 500 random probes |
| B16 | 5.65 PBM z-score against 500 random probes |

Biological target: PPARa:RXRa (Homo sapiens, UniProt Q07869;P19793 full;full)
Test: as above
Conditions: tags: GST kept;His cleaved; copies: 1;1; label: surface-attached array probe
In short: as §1

| Binder | binding signal |
| --- | --- |
| B2 | 6.53 PBM z-score against 500 random probes |

Biological target: LXRb:RXRa (Homo sapiens, UniProt P55055;P19793 full;full)
Test: as above
Conditions: tags: His kept;His cleaved; copies: 1;1; label: surface-attached array probe
In short: as §1

Chain of LXRb:RXRa (P55055 whole entry, chain 1 of 2): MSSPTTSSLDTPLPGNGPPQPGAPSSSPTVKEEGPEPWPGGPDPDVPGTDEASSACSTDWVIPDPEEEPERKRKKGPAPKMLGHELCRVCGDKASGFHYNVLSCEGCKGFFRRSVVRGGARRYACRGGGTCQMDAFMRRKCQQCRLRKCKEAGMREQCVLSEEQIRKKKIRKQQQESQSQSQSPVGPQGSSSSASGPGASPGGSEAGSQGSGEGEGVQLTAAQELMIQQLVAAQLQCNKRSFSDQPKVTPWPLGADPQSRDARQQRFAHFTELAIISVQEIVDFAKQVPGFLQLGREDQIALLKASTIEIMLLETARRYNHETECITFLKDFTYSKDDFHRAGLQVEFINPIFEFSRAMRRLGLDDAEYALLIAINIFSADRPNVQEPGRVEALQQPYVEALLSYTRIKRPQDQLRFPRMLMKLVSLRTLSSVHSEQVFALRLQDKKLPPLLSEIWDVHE
Chain of LXRb:RXRa (P19793 whole entry, chain 2 of 2): as the sequence (P19793 whole entry, chain 2 of 2) above

| Binder | binding signal |
| --- | --- |
| B7 | 6.24 PBM z-score against 500 random probes |
| B13 | -0.71 PBM z-score against 500 random probes |
| B2 | 5.81 PBM z-score against 500 random probes |
| B17 | 6.88 PBM z-score against 500 random probes |
| B1 | 6.07 PBM z-score against 500 random probes |

Biological target: LXRa:RXRa (Homo sapiens, UniProt Q13133;P19793 full;full)
Test: as above
Conditions: tags: His kept;His cleaved; copies: 1;1; label: surface-attached array probe
In short: as §1

| Binder | binding signal |
| --- | --- |
| B6 | -0.87 PBM z-score against 500 random probes |
| B7 | 7.62 PBM z-score against 500 random probes |
| B8 | 0.13 PBM z-score against 500 random probes |
| B9 | 6.87 PBM z-score against 500 random probes |
| B15 | 7.31 PBM z-score against 500 random probes |
| B17 | 7.87 PBM z-score against 500 random probes |

Biological target: FXR:RXRa (Homo sapiens, UniProt Q96RI1;P19793 full;full)
Test: as above
Conditions: tags: His kept;His cleaved; copies: 1;1; label: surface-attached array probe
In short: as §1

Chain of FXR:RXRa (Q96RI1 whole entry, chain 1 of 2): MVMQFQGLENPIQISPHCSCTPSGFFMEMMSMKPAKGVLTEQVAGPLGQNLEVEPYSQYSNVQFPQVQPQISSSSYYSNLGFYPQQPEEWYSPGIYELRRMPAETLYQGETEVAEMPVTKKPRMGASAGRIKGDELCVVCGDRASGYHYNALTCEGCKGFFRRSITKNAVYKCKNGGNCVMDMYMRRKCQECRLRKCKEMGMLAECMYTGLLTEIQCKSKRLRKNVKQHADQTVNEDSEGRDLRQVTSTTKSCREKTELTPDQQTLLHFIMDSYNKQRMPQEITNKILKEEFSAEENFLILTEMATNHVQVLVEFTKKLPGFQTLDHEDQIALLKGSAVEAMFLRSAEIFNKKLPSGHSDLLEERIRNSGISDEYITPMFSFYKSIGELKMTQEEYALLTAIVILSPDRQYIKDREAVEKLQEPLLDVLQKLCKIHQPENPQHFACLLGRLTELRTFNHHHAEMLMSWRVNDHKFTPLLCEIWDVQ
Chain of FXR:RXRa (P19793 whole entry, chain 2 of 2): as the sequence (P19793 whole entry, chain 2 of 2) above

| Binder | binding signal |
| --- | --- |
| B5 | 7.96 PBM z-score against 500 random probes |
| B6 | -0.65 PBM z-score against 500 random probes |
| B12 | 7.9 PBM z-score against 500 random probes |
| B2 | 7.83 PBM z-score against 500 random probes |
| B19 | 8.44 PBM z-score against 500 random probes |

Biological target: VDR:RXRa (Homo sapiens, UniProt P11473;P19793 full;full)
Test: as above
Conditions: tags: His kept;His cleaved; copies: 1;1; label: surface-attached array probe
In short: as §1

Chain of VDR:RXRa (P11473 whole entry, chain 1 of 2): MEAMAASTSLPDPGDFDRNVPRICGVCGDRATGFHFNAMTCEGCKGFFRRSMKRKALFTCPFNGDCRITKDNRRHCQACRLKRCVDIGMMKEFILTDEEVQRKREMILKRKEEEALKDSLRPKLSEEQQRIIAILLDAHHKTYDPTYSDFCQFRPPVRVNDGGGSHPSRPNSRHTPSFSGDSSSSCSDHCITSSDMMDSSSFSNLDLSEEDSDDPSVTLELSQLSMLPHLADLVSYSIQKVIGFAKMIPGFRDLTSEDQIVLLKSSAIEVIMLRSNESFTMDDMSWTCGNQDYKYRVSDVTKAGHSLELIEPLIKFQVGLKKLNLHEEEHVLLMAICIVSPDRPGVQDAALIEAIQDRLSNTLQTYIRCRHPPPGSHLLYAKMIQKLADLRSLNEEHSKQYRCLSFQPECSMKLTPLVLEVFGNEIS
Chain of VDR:RXRa (P19793 whole entry, chain 2 of 2): as the sequence (P19793 whole entry, chain 2 of 2) above

| Binder | binding signal |
| --- | --- |
| B5 | 7.3 PBM z-score against 500 random probes |
| B9 | 7.03 PBM z-score against 500 random probes |
| B10 | 6.98 PBM z-score against 500 random probes |
| B11 | 6.63 PBM z-score against 500 random probes |
| B13 | -0.74 PBM z-score against 500 random probes |
| B16 | 8.16 PBM z-score against 500 random probes |
| B17 | 7.19 PBM z-score against 500 random probes |
| B3 | 7.1 PBM z-score against 500 random probes |
| B18 | 6.65 PBM z-score against 500 random probes |
| B1 | 8.66 PBM z-score against 500 random probes |
| B19 | 6.85 PBM z-score against 500 random probes |

Biological target: THRa:RXRa (Homo sapiens, UniProt P10827;P19793 full;full)
Test: no ligand; PBM; 90 nM : 90 nM RXRa; PBS pH 7.4, 2% milk, 0.02% Triton X-100, 1 mM DTT, BSA, 0.4 mg/ml salmon testes DNA
Conditions: tags: His kept;His cleaved; copies: 1;1; label: surface-attached array probe

Chain of THRa:RXRa (P10827 other isoform, or with tags, fused parts or gaps, chain 1 of 2): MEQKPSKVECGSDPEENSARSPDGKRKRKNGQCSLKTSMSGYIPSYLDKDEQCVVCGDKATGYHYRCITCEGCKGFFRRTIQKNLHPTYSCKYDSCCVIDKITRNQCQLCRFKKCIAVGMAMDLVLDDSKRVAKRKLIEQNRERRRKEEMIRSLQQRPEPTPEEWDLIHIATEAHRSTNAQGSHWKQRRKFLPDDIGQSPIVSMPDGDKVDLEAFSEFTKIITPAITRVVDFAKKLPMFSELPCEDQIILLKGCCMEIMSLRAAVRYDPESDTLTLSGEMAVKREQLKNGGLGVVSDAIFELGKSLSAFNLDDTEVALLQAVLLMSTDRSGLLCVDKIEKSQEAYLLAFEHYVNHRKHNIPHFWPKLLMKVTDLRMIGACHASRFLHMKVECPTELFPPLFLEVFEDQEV
Chain of THRa:RXRa (P19793 whole entry, chain 2 of 2): as the sequence (P19793 whole entry, chain 2 of 2) above

| Binder | binding signal |
| --- | --- |
| B4 | -0.23 PBM z-score against 500 random probes |
| B5 | 5.49 PBM z-score against 500 random probes |
| B6 | -0.56 PBM z-score against 500 random probes |
| B7 | 5.25 PBM z-score against 500 random probes |
| B8 | -0.5 PBM z-score against 500 random probes |
| B9 | 4.79 PBM z-score against 500 random probes |
| B10 | 5.78 PBM z-score against 500 random probes |
| B11 | 5.78 PBM z-score against 500 random probes |
| B12 | 4.82 PBM z-score against 500 random probes |
| B13 | -0.7 PBM z-score against 500 random probes |
| B14 | -0.22 PBM z-score against 500 random probes |
| B15 | 5.54 PBM z-score against 500 random probes |
| B2 | 4.91 PBM z-score against 500 random probes |
| B16 | 4.8 PBM z-score against 500 random probes |
| B17 | 5.49 PBM z-score against 500 random probes |
| B3 | 5.13 PBM z-score against 500 random probes |
| B18 | 5.55 PBM z-score against 500 random probes |
| B1 | 4.97 PBM z-score against 500 random probes |
| B19 | 4.78 PBM z-score against 500 random probes |
| B20 | -0.41 PBM z-score against 500 random probes |
